According to paper PMC10786891, “Massively parallel profiling of RNA-targeting CRISPR-Cas13d”:
Positions count from the first letter of the chain named. In names and notes the source's numbering stands.

B1: target 1 U19C,C22A (mixed)
RNA 1: CACCCGUGCAAAAAUGCAGGGGUCUAAAACUGAGCGGAUAACCUCUCUAUGG
RNA 2: GGGAAUGGAUCCACAUCUACGAAUUCGUAACACAGAGAGGUUAUCCGCUCACCGAGAUCGGAAGAGCACACGU
B2: target 1 insC 3' of 5,insG 3' of 3 (mixed)
RNA 1: B1 RNA 1
RNA 2: GGGAAUGGAUCCACAUCUACGAAUUCGUACCAUAGAGAGGUUAUCCGCCUGCACCGAGAUCGGAAGAGCACACGU
B3: target 1 insG 3' of 14,insG 3' of 1 (mixed)
RNA 1: B1 RNA 1
RNA 2: B2 RNA 2 with U41G, A43U, U44A, C45U, G47C, C48G, G51C, C52A, A53G
B4: target 1 insG 3' of 19,insU 3' of 15 (mixed)
RNA 1: B1 RNA 1
RNA 2: GGGAAUGGAUCCACAUCUACGAAUUCGUACCAUGAGAGUAGGUUAUCCGCUCACCGAGAUCGGAAGAGCACACGU
B5: target 1 insG 3' of 11,insC 3' of 1 (mixed)
RNA 1: B1 RNA 1
RNA 2: B2 RNA 2 with U42G, A43U, U44A, C45U, G47C, C48G, G51C, C52A, A53C
B6: target 1 insG 3' of 11,insA 3' of 2 (mixed)
RNA 1: B1 RNA 1
RNA 2: B2 RNA 2 with U42G, A43U, U44A, C45U, G47C, C48G, G51C, C52A
B7: target 1 insG 3' of 11,insG 3' of 1 (mixed)
RNA 1: B1 RNA 1
RNA 2: B2 RNA 2 with U42G, A43U, U44A, C45U, G47C, C48G, G51C, C52A, A53G
B8: target 1 insC 3' of 15,insC 3' of 9 (mixed)
RNA 1: B1 RNA 1
RNA 2: GGGAAUGGAUCCACAUCUACGAAUUCGUACCAUAGAGCAGGUUACUCCGCUCACCGAGAUCGGAAGAGCACACGU
B9: target 1 insG 3' of 11,insC 3' of 11 (mixed)
RNA 1: B1 RNA 1
RNA 2: B8 RNA 2 with C38A, A39G, G41U, U42G, U43C, A44U, C45A
B10: target 1 insG 3' of 14,insU 3' of 1 (mixed)
RNA 1: B1 RNA 1
RNA 2: B2 RNA 2 with U41G, A43U, U44A, C45U, G47C, C48G, G51C, C52A, A53U
B11: target 1 insG 3' of 21,insU 3' of 12 (mixed)
RNA 1: B1 RNA 1
RNA 2: B4 RNA 2 with A32G, U33A, G34U, U39A, A40G, G42U
B12: target 1 del1,del2 (mixed)
RNA 1: B1 RNA 1
RNA 2: GGGAAUGGAUCCACAUCUACGAAUUCGUACCAUAGAGAGGUUAUCCGCUCCGAGAUCGGAAGAGCACACGU
B13: target 1 insA 3' of 17,insA 3' of 17 (mixed)
RNA 1: B1 RNA 1
RNA 2: B4 RNA 2 with G34A, A35G, G36A, G38A, U39G
B14: target 1 insC 3' of 15,insU 3' of 2 (mixed)
RNA 1: B1 RNA 1
RNA 2: B8 RNA 2 with C45U, U46C, C48G, G49C, C50U, U51C, C52U
B15: target 1 insC 3' of 15,insA 3' of 3 (mixed)
RNA 1: B1 RNA 1
RNA 2: B8 RNA 2 with C45U, U46C, C48G, G49C, C50U, U51A
B16: target 1 del11,del16 (mixed)
RNA 1: B1 RNA 1
RNA 2: GGGAAUGGAUCCACAUCUACGAAUUCGUACCAUAGGAGGUAUCCGCUCACCGAGAUCGGAAGAGCACACGU
B17: target 1 C4G,C6A (mixed)
RNA 1: B1 RNA 1
RNA 2: B1 RNA 2 with A30C, C33U, C46A, C48G
B18: target 1 insG 3' of 11,insU 3' of 1 (mixed)
RNA 1: B1 RNA 1
RNA 2: B2 RNA 2 with U42G, A43U, U44A, C45U, G47C, C48G, G51C, C52A, A53U
B19: target 1 insC 3' of 19,insG 3' of 19 (mixed)
RNA 1: B1 RNA 1
RNA 2: B4 RNA 2 with G34C, A35G, G36A, A37G, G38A, U39G
B20: target 1 C2U,A16U (mixed)
RNA 1: B1 RNA 1
RNA 2: B1 RNA 2 with A30C, C33U, A36U, C50U
B21: target 1 insC 3' of 22,insC 3' of 22 (mixed)
RNA 1: B1 RNA 1
RNA 2: B4 RNA 2 with A32C, U33C, G34A, A35U, G36A, A37G, G38A, U39G
B22: target 1 insC 3' of 15,insU 3' of 4 (mixed)
RNA 1: B1 RNA 1
RNA 2: B8 RNA 2 with C45U, U46C, C48G, G49C, C50U
B23: target 1 U8G,G13U (mixed)
RNA 1: B1 RNA 1
RNA 2: B1 RNA 2 with A30C, C33U, G39U, U44G
B24: target 1 G17A,C21U (mixed)
RNA 1: B1 RNA 1
RNA 2: B1 RNA 2 with A30C, C31U, C33U, G35A
B25: target 1 insU 3' of 22,insU 3' of 6 (mixed)
RNA 1: B1 RNA 1
RNA 2: GGGAAUGGAUCCACAUCUACGAAUUCGUACUCAUAGAGAGGUUAUCCUGCUCACCGAGAUCGGAAGAGCACACGU
B26: target 1 insA 3' of 19,insG 3' of 10 (mixed)
RNA 1: B1 RNA 1
RNA 2: B4 RNA 2 with G34A, U39A, A40G, G42U, U44G
B27: target 1 U3A,U19C (mixed)
RNA 1: B1 RNA 1
RNA 2: B1 RNA 2 with A30C, U49A
B28: target 1 insA 3' of 21,insC 3' of 12 (mixed)
RNA 1: B1 RNA 1
RNA 2: B4 RNA 2 with U33A, G34U, U39A, A40G, G42C
B29: target 1 C7A,G12U (mixed)
RNA 1: B1 RNA 1
RNA 2: B1 RNA 2 with A30C, C33U, G40U, C45A
B30: target 1 A18U,A20G (mixed)
RNA 1: B1 RNA 1
RNA 2: B1 RNA 2 with A30C, A32G, C33U, A34U
B31: target 1 U8G,C22G (mixed)
RNA 1: B1 RNA 1
RNA 2: B1 RNA 2 with A30G, C33U, U44G
B32: target 1 C7U,A16U (mixed)
RNA 1: B1 RNA 1
RNA 2: B1 RNA 2 with A30C, C33U, A36U, C45U
B33: target 1 G13U,A16G (mixed)
RNA 1: B1 RNA 1
RNA 2: B1 RNA 2 with A30C, C33U, A36G, G39U
B34: target 1 insG 3' of 9,insA 3' of 7 (mixed)
RNA 1: B1 RNA 1
RNA 2: B2 RNA 2 with U44G, C45U, G47A, C49G, U50C, G51U

target: T1, EsCas13d, nuclease-dead (Eubacterium siraeum, UniProt B0MS50, R295A;H300A;R849A;H854A); assay: crRNA (strand 1, pre-loaded); Mg2+; 40 mM Tris-HCl pH 7.5, 150 mM NaCl, 6 mM MgCl2, 1 mM DTT, 0.1% Tween-20, 0.2 mg/ml BSA; 25 C; 10 min per concentration, then washed; settings: tags: His6-TwinStrep-SUMO cleaved; N-terminal SNAP kept (SNAP-Surface 488); label: 3' end held by stalled T7 RNA polymerase
T1 sequence: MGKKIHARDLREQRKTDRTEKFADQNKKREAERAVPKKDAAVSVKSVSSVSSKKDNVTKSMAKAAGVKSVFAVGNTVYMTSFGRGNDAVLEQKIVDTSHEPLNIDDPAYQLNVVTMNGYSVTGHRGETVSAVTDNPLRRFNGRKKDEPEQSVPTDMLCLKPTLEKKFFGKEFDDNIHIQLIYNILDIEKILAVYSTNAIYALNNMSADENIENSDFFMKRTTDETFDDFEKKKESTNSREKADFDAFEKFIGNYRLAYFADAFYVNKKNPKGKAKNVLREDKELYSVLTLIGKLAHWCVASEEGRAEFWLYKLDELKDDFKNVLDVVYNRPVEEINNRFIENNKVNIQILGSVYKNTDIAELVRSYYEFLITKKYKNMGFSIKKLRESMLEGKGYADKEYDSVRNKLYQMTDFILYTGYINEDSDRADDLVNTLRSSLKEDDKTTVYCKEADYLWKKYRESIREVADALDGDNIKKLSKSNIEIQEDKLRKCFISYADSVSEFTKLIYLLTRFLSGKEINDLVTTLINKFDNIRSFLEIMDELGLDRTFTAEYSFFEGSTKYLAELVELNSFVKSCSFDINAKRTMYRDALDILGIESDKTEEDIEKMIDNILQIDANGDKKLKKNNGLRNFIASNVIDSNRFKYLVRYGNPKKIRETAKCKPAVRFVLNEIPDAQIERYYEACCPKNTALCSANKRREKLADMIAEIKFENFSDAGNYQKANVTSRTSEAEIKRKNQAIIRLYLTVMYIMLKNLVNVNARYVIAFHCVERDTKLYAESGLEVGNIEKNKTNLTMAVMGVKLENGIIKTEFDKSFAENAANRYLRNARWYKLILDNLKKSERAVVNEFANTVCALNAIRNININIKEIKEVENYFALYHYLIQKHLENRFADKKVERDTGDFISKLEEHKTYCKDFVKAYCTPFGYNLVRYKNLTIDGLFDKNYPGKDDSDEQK

Going from B1 to B2, the Kd falls from 43 ± 5 nM to 24.9 ± 2.3 nM (1.7-fold). The second binds more tightly here.

Going from B3 to B4, the Kd rises from 11.3 ± 0.7 nM to 60 ± 9 nM (5.3-fold). The first binds more tightly here.

B5 and B6 are within 1.5-fold of each other in Kd: 35 ± 6 nM for the first, 49 ± 6 nM for the second.

Compared with B7, B8 is 1.7-fold lower in Kd: 34 ± 4 nM for the first, 20 ± 1.7 nM for the second. The second binds more tightly here.

B9 and B10 are within 1.5-fold of each other in Kd: 18 ± 1.7 nM for the first, 12.3 ± 1.2 nM for the second.

Going from B11 to B12, the Kd falls from 64 ± 13 nM to 15.6 ± 0.9 nM (4.1-fold). The second binds more tightly here.

Compared with B13, B14 is 1.9-fold higher in Kd: 10.8 ± 0.6 nM for the first, 20.5 ± 1.8 nM for the second.

Going from B15 to B16, the Kd rises from 13 ± 0.8 nM to 68 ± 11 nM (5.2-fold). The first binds more tightly here.

Going from B17 to B18, the Kd rises from 6.7 ± 0.4 nM to 56 ± 10 nM (8.4-fold). The first binds more tightly here.

B19 and B20 are within error of each other in Kd: 73 ± 6 nM for the first, 56 ± 11 nM for the second.

B21 and B22 are within 1.5-fold of each other in Kd: 17.4 ± 0.7 nM for the first, 14.3 ± 0.6 nM for the second.

Compared with B23, B24 is 4.7-fold lower in Kd: 38 ± 8 nM for the first, 8.1 ± 0.5 nM for the second. The second binds more tightly here.

B25 and B26 are within error of each other in Kd: 38 ± 7 nM for the first, 68 ± 28 nM for the second.

Going from B27 to B28, the Kd rises from 24.2 ± 2.6 nM to roughly 44 nM (1.8-fold).

Going from B29 to B30, the Kd rises from 15.3 ± 1.5 nM to 93 ± 30 nM (6.1-fold). The first binds more tightly here.

B31 and B32 are within error of each other in Kd: 43 ± 11 nM for the first, 46 ± 7 nM for the second.

Going from B33 to B34, the Kd falls from 100 ± 50 nM to 12.2 ± 0.6 nM (8.2-fold).
